Series [1] relates to T1, UPF1-HD (Homo sapiens), Q92900-2.
T1 sequence: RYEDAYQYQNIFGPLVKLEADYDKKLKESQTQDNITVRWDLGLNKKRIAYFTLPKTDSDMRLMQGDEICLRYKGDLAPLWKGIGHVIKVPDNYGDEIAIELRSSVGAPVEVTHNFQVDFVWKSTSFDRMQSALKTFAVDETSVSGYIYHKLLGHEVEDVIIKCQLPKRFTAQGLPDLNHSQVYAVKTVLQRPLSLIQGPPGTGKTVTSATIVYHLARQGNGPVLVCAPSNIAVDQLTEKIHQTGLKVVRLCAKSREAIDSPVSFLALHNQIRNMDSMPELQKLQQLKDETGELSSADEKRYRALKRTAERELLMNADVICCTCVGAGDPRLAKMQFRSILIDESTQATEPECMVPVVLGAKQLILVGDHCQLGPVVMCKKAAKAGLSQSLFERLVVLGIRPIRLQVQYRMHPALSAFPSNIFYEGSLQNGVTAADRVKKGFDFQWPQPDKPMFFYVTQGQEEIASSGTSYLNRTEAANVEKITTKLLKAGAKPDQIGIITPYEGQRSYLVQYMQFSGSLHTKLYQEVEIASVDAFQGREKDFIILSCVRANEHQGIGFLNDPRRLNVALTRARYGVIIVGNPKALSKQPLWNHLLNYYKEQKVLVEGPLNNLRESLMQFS
As to the kind of experiment: BLI. Particulars: BLI: 20 mM HEPES pH 7.5, 150 mM K acetate, 2 mM Mg acetate, 1 mM DTT, 6.3% glycerol, 0.1% NP-40; EMSA: 20 mM MES pH 6.0, 150 mM K acetate, 2 mM DTT, 0.2 ug/ul …. On the technique in general: A gel shift assay detects complexes by their altered migration in electrophoresis.

The target in series [2] is GST-Tax_(CACA) (HTLV-1 Tax with C23 and C29 changed to alanine, N-terminal GST fusion) (HTLV-1) (UniProt P03409). As to the kind of experiment: BLI; BLItz; GST-Tax covalently bound to an AR2G sensor; UPF1 His-HD proteins in running buffer (300 mM NaCl, 20 mM phosphate, 0.02% Tween 20, 0.1% albumin); 250 s association, 60 s dissociation. A general note: Biolayer interferometry detects binding as a change in optical thickness at a sensor tip.

What is called Kd is the free concentration of one partner at which half of the binding sites on the other are occupied at equilibrium, for simple one-to-one binding. Lower therefore signals tighter binding.

Regarding 5'-biotin 30-mer ssDNA (BLI), in series [1], the Kd worked out at 8.25 nM.
“UPF1-HD_(R843C), histidine-tagged (from UniProt Q92900-2 295-914) (domain or fragment)” showed a fold change of KD against WT in series [2] of 3.2 times.

For the origin of these results see PMC5789848.
